Paper doi:10.1101/524447 (bioRxiv, 2019)
Non-standard residues stand in square brackets, D forms with d. No end group written: not given here. pY = N[C@@H](Cc1ccc(OP(=O)(O)O)cc1)C(=O)O

What was measured:
[1] = molecular target: T1, Syk tandem SH2 (tSH2) fragment, amino acids 9-264 (UniProt P43405 9-264); experiment: SPR
[2] = molecular target: T1, Syk tandem SH2 (tSH2) fragment, amino …; experiment: thermal shift assay

## NPD[pY]EPIRKGQRDL[pY]SGLNQR [pITAM peptide from CD3ε chain, doubly phosphorylated]
[1]
  IC50: 15 µM
[2]
  Kd: 4.2 ± 0.68 µM
